Measured values reported in US20100298415.

Assays:
Experiment in all cases: competition
Conditions in all cases: PS three linkages at 5' and 3' ends of both strands; 5' C6 amino linker conjugated to Co(III) Schiff base; not inhibited at 1 uM; EMSA
[1] = biological target: Lef-1 (UniProt Q9UJU2)
[2] = biological target: T1, MitF (UniProt O75030)
T1 sequence: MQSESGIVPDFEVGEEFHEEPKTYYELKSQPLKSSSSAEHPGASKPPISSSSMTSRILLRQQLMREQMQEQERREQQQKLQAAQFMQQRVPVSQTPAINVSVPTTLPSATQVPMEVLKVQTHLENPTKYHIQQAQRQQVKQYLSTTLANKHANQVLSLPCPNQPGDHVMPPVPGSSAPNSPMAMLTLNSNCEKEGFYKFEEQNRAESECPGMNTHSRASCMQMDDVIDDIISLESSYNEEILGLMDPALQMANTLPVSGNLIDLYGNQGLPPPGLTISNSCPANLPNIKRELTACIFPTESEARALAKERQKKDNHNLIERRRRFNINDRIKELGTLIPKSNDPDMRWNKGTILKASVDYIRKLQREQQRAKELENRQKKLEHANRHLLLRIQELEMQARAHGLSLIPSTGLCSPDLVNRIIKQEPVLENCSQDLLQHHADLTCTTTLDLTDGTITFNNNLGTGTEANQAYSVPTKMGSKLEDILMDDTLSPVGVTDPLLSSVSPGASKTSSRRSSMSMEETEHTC

[3] = biological target: T2, p105 (NF-kB) (UniProt P19838)
T2 sequence: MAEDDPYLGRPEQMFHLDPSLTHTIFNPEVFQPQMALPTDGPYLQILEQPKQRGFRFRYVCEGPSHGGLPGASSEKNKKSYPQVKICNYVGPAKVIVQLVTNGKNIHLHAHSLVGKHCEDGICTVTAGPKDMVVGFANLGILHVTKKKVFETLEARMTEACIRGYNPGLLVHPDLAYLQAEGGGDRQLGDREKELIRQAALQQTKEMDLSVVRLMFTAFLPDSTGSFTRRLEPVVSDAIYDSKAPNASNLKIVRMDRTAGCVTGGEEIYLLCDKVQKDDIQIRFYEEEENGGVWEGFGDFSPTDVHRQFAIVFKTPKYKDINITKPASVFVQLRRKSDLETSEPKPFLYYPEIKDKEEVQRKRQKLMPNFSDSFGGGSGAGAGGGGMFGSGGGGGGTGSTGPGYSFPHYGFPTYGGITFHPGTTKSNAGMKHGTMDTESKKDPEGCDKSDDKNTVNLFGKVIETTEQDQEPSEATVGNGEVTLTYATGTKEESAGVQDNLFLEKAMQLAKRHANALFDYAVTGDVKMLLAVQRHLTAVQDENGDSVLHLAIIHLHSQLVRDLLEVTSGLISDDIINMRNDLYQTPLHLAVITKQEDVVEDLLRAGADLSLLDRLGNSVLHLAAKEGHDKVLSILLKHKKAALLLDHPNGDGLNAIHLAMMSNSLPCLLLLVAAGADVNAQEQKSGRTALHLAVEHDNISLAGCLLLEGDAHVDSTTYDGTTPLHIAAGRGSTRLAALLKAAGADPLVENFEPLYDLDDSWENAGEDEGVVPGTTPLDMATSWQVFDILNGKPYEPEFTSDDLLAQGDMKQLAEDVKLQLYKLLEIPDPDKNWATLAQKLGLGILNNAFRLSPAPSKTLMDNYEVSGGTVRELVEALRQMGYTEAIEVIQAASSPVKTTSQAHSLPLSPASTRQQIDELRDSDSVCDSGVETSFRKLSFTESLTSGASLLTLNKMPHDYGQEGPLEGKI

Measured: activity

Lef-1, sequence (Q9UJU2 whole entry): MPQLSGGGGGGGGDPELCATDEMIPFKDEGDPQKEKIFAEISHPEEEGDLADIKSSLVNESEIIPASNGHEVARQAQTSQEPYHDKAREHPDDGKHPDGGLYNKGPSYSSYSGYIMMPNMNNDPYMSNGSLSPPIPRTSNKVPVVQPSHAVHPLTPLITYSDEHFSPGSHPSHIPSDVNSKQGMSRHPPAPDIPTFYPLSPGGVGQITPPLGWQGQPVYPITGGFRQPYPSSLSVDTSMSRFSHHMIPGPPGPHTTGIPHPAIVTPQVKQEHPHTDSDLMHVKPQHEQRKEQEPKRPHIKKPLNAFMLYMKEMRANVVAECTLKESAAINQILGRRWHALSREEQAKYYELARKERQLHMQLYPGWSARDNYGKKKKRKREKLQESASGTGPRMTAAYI

TACGACAGGTGTTGGGA (double strand) [Co(III)-Ebox]
> 1 µM: all assays above
